PMC2191977 (The Journal of Experimental Medicine, 1995)
Residue numbers refer to the chain shown, from its start.

Assays:
Assay in all cases: flow cytometry on cells
B7 L179V = target: T1, B7 L179V (mouse, UniProt Q00609 38-306, L179V)
T1 sequence (looked up): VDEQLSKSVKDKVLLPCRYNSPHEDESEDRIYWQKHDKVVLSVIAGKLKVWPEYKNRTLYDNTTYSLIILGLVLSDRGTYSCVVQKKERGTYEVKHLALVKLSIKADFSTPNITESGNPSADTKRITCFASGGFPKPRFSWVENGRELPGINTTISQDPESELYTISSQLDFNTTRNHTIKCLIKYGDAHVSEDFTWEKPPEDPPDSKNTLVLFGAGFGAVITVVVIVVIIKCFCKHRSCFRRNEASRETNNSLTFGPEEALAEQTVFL

B7 E199A = target: T2, B7 E199A (mouse, UniProt Q00609 38-306, E199A)
T2 sequence (looked up): T1 sequence (looked up) with V142L, E162A

B7 L200A = target: T3, B7 L200A (mouse, UniProt Q00609 38-306, L200A)
T3 sequence (looked up): T1 sequence (looked up) with V142L, L163A

B7 Y201A = target: T4, B7 Y201A (mouse, UniProt Q00609 38-306, Y201A)
T4 sequence (looked up): T1 sequence (looked up) with V142L, Y164A

murine B7 (wild type) = target: T5, murine B7 (wild type) (mouse, UniProt Q00609 38-306)
T5 sequence (looked up): T1 sequence (looked up) with V142L

B7 K173E = target: T6, B7 K173E (mouse, UniProt Q00609 38-306, K173E)
T6 sequence (looked up): T1 sequence (looked up) with K136E, V142L

B1: CD28Ig (Fc fusion, mouse, UniProt P31041 20-150, looked up)
chain: NKILVKQSPLLVVDSNEVSLSCRYSYNLLAKEFRASLYKGVNSDVEVCVGNGNFTYQPQFRSNAEFNCDGDFDNETVTFRLWNLHVNHTDIYFCKIEFMYPPPYLDNERSNGTIIHIKEKHLCHTQSSPKL
B7 L179V
  % wild-type B7 binding (normalised to anti-B7 mAb 10.16A.1): 18%
  MF (mean fluorescence, control subtracted): 12 MF
B7 E199A
  % wild-type B7 binding (normalised to anti-B7 mAb 10.16A.1): 31%
  MF (mean fluorescence, control subtracted): 16 MF
B7 L200A
  % wild-type B7 binding (normalised to anti-B7 mAb 10.16A.1): 53%
  MF (mean fluorescence, control subtracted): 28 MF
B7 Y201A
  % wild-type B7 binding (normalised to anti-B7 mAb 10.16A.1): 3%
  MF (mean fluorescence, control subtracted): 1 MF
Murine B7 (wild type)
  % wild-type B7 binding (normalised to anti-B7 mAb 10.16A.1): 100%
B7 K173E
  % wild-type B7 binding (normalised to anti-B7 mAb 10.16A.1): 77%
  MF (mean fluorescence, control subtracted): 44 MF
